Data taken from article PMC12464271.

Biological target: HPV-16 L1 capsid protein lacking the first twenty-nine N-terminal amino acids after the start codon (Human papillomavirus type 16) (UniProt P03101)
Assay: SEC + other: negative-stain TEM; purified L1 in phosphate buffer pH 7.5 with the reducing agent DTT (20 mM); aggregates disassembled into soluble pentamers

HPV-16 L1 capsid protein lacking the first twenty-nine N-terminal amino acids after the start codon (from UniProt P03101 1-505) (natural protein)
stoichiometry N: 5
